3 compounds from patent US8158585B2, “Cross-β structure comprising amyloid-binding proteins and methods for detection of the cross-β structure, for modulating cross-β structures fiber formation and modulating cross-β structure-mediated toxicity” (CrossBeta Biosciences B.V., priority 2002, dated 2012) can be followed below.

For data set [1], the target named is T1, albumin-g6p (albumin-AGE) (Bos taurus, UniProt P02769).
T1 construct: Bovine serum albumin (BSA) fraction V pH 7.0; host or cells: bovine serum, fraction V
T1 sequence (P02769 25-607): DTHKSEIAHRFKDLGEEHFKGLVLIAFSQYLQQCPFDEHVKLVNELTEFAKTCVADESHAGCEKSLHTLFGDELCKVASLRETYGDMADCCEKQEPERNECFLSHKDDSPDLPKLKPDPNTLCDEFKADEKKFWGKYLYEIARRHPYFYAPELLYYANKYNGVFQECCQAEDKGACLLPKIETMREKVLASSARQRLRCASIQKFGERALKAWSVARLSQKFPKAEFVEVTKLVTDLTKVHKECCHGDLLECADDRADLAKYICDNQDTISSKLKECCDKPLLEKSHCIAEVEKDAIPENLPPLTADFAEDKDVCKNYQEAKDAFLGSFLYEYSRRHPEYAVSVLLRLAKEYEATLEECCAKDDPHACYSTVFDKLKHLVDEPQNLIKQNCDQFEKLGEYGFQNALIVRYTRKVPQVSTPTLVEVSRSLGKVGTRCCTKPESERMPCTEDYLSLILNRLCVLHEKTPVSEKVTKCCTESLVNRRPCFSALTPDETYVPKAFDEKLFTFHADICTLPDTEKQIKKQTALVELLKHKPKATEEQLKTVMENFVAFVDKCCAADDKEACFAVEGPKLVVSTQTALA
Description: ELISA: binding of tPA (f.l. tPA, K2-P tPA) to albumin-g6p, with Congo red competition. The conditions noted are these: 20 nM tPA, increasing Congo red. Also on record: species or system bovine. As to the method: (§1) Binding of tPA to albumin-g6p (four-week and 23-week incubations), albumin-glyceraldehyde, control albumin, human Hb-g6p (ten-week incubation), Hb control, or to Aβ (1-40) was tested using an enzyme-linked immunosorbent assay (ELISA) set-up. Albumin-g6p and control albumin (2.5 μg ml^−1 in coat buffer, 50 mM Na2CO3/NaHCO3 pH 9.6, 0.02% m/v NaN3, 50 μl/well) were immobilized for one hour at room temperature in 96-well protein Immobilizer plates (Exiqon, Vedbaek, Denmark). Aβ (1-40) (10 μg ml^−1 in coat buffer) was immobilized for 75 minutes at room temperature in a 96-well peptide Immobilizer plate (Exiqon, Vedbaek, Denmark). Control wells were incubated with coat buffer only. After a wash step with 200 μl of PBS/0.1% v/v Tween 20, plates were blocked with 300 μl of PBS/1% v/v Tween 20, for two hours at room temperature while shaking. All subsequent incubations were performed in PBS/0.1% v/v Tween 20 for one hour at room temperature while shaking, with volumes of 50 μl per well. After each incubation, wells were washed five times with 200 μl of PBS/0.1% v/v Tween 20. Increasing amounts of f.l. tPA or K2-P tPA was added in triplicate to coated wells and to control wells. […] Absorbance was read at 490 nm on a Vmax kinetic microplate reader (Molecular Devices, Sunnyvale, Calif., USA). […]
In general terms: In an ELISA, binding on a coated surface is turned into a signal by an enzyme label.

Data set [2] has as its target Aβ (1-40) (Homo sapiens, UniProt P05067). Description: ELISA: binding of tPA (f.l. tPA, K2-P tPA) to Aβ (1-40), with Congo red competition. Also on record: Peptide Aβ (1-40), containing amino acids as present in the described human Alzheimer peptide; purchased Pepscan, Inc. or peptide synthesis facility of the Netherlands Cancer Institute; host or cells: chemical synthesis. The note with it: 40 nM tPA, 0-100 μM Congo red. As to the method:
as §1

Data set [3] concerns amyloid deposits in human brain inflicted by AD. Description: Immunohistochemistry: binding of tPA F-EGF to human AD brain. The conditions noted are these: 7 nM construct; Congo red fluorescence to locate amyloid. As to the method: Paraffin brain sections of a human inflicted with AD was a kind gift of Prof. Slootweg (Dept. of Pathology, UMC Utrecht). Sections were deparaffinized in a series of xylene-ethanol. Endogenous peroxidases were blocked with methanol/1.5% H2O2 for 15 minutes. After rinsing in H2O, sections were incubated with undiluted formic acid for ten minutes, followed by incubation in PBS for five minutes. Sections were blocked in 10% HPS in PBS for 15 minutes. Sections were exposed for two hours with 7 nM of tPA F-EGF-GST or GST in PBS/0.3% BSA. After three wash steps with PBS, sections were overlayed with 200 ng ml^−1 anti-GST antibody Z-5, for one hour. After washing, ready-to-use goat anti-rabbit Powervision (Immunologic, Duiven, The Netherlands, catalogue #DPVR-55AP) was applied and incubated for one hour. After washing, sections were stained for ten minutes with 3,3′-diamino benzidine (Sigma-Aldrich, St Louis, Mo., USA, catalogue #D-5905), followed by hematoxylin staining for ten seconds. After washing with H2O, sections were incubated with Congo red according to the manufacturer's recommendations (Sigma Diagnostics, St Louis, Mo., USA). […] Analysis of sections was performed on a Leica DMIRBE fluorescence microscope (Rijswijk, The Netherlands). Fluorescence of Congo red was analyzed using an excitation wavelength of 596 nm and an emission wavelength of 620 nm.

Data set [4] has as its target T2, IAPP (Homo sapiens, UniProt P10997).
T2 construct: purchased Pepscan, Inc. (The Netherlands) or peptide synthesis facility at the Netherlands Cancer Institute; host or cells: synthetic peptide
T2 sequence (P10997 34-70 limits assumed): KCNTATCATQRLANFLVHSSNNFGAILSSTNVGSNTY
Description: Amyloid ELISA with tPA F-EGF-GST: IAPP. Type of data set: binding. On the procedure: (§2) In order to define the affinity of the purified tPA F-EGF-GST recombinant protein, ELISAs were performed with immobilized amyloid (poly)peptides and non-amyloid control ΔmIAPP. Twenty-five μg ml^−1 of Aβ, FP13, IAPP or ΔmIAPP was immobilized on Exiqon peptide immobilizer plates. A concentration series of tPA F-EGF-GST in the presence of excess εACA was added to the wells and binding was assayed using anti-GST antibody Z-5. As a control, GST (Sigma-Aldrich, St. Louis, Mo., USA, catalogue #G-5663) was used at the same concentrations.

Data set [5] deals with T3, Aβ fibrils (Homo sapiens, UniProt P05067).
T3 construct: Peptide Aβ (1-40), containing amino acids as present in the described human Alzheimer peptide; purchased Pepscan, Inc. (The Netherlands) or peptide synthesis facility at the Netherlands Cancer Institute; host or cells: synthetic peptide
T3 sequence (P05067 672-711): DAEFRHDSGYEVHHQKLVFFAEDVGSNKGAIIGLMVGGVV
Description: Amyloid pull-down with insoluble Aβ fibers. The conditions noted are these: conditioned BHK medium. Type of data set: binding.

The target of data set [6] is T4, Aβ (Homo sapiens, UniProt P05067).
T4 construct: Peptide Aβ (1-40), containing amino acids as present in the described human Alzheimer peptide; purchased Pepscan, Inc. or peptide synthesis facility of the Netherlands Cancer Institute; host or cells: chemical synthesis
T4 sequence (P05067 672-711): as above
Put plainly: Amyloid ELISA with tPA F-EGF-GST: Aβ. The class given is binding. On the procedure: as §2

The target of data set [7] is T5, fibrin fragment α148-160 FP13 (Homo sapiens, UniProt P02671).
T5 construct: purchased Pepscan, Inc. or peptide synthesis facility of the Netherlands Cancer Institute; host or cells: chemical synthesis
Description: Amyloid ELISA with tPA F-EGF-GST: FP13. The class given is binding. On the procedure: as §2

The target in data set [8] is T6, IAPP fibrils (Homo sapiens, UniProt P10997).
T6 construct: purchased Pepscan, Inc. (The Netherlands) or peptide synthesis facility at the Netherlands Cancer Institute; host or cells: synthetic peptide
T6 sequence (P10997 34-70 limits assumed): T2 sequence (P10997 34-70 limits assumed)
Put plainly: Amyloid pull-down with IAPP fibrils. Type of data set: binding. The conditions noted are these: conditioned BHK medium. As to the method: Conditioned medium of BHK cells expressing GST-tagged tPA F, F-EGF, EGF, K1, F-EGF-K1, FXII F, HGFa F, Fn F4, Fn F5, Fn F4-5 and GST was used for amyloid binding assays. At first, constructs were adjusted to approximately equal concentration using Western blots. Qualitative binding of the recombinant fragments were evaluated using a “pull-down” assay. To this end, the recombinantly made fragments were incubated with either Aβ or IAPP fibrils. Since these peptides form insoluble fibers, unbound proteins can be easily removed from the fibers following centrifugation. The pellets containing the bound fragments were subsequently washed several times. Bound fragments were solubilized in SDS-sample buffer and analyzed by PAGE, as were unbound proteins in the supernatant fraction and starting material. The gels were analyzed using immunoblotting analysis with the anti-GST antibody Z-5.

Aβ (1-40), sequence (P05067 672-711): as above

Take `Nc1c(/N=N/c2ccc(-c3ccc(/N=N/c4cc(S(=O)(=O)O)c5ccccc5c4N)cc3)cc2)cc(S(=O)(=O)O)c2ccccc12` [Congo red]: the “competition of tPA binding to albumin-g6p” value in data set [1] was “competed”. The “competition of tPA binding to Aβ” value in data set [2] is given as “competed”.

As for “GST: glutathion-S-transferase tag alone, negative control”, the “binding to amyloid deposits in AD brain sections” value in data set [3] was “did not show specific binding”. For the same compound, in data set [4], the “binding to IAPP” value is on record as “did not bind”. Moreover, the “binding to Aβ fibers (pull-down, Western blot)” value in data set [5] is on record as “remain in the supernatant”. Further, the “binding to Aβ” value in data set [6] is given as “some binding”. The “binding to FP13” value in data set [7] is “did not bind”.

As to “HGFa F-GST: finger domain of human hepatocyte growth factor activator with GST tag”, in data set [5], the “binding to Aβ fibers (pull-down, Western blot)” value was “specifically bind”. The “binding to IAPP fibrils (pull-down, not shown)” value in data set [8] is listed as “specifically bind”.
